Assay results: patent publication US20190177366A1 (published 2019)
Bridge positions count the residues as written; N and C are the ends. Square brackets hold non-standard residues; d marks the D form. * marks the point of attachment. 5FAM = O=C1OC2(c3ccc(O)cc3Oc3cc(O)ccc32)c2ccc(C(=O)*)cc21; Ach = 2-aminocyclohexane-1-carboxylic acid; hArg = N=C(N)NCCCC[C@H](N)C(=O)O; Pentanoyl = CCCCC(=O)*

biological target: T1, human PCSK9 (proprotein convertase subtilisin/kexin type 9), His-tagged, full-length (human, UniProt A8T644 31-152; Q8NBP7 153-692, limits assumed); assay: TR-FRET competition vs EGF(A)-Fc on His-PCSK9
T1 construct: The secreted protein is the prodomain plus the catalytic/Cys-rich part (N-terminus S153) after autocleavage; also called His-PCSK9; NARC-1
T1 sequence (A8T644 31-152 limits assumed, chain 1 of 2): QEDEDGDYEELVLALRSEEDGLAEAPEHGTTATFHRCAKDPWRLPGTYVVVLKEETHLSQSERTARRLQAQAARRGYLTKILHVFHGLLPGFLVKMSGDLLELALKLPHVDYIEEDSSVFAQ
T1 sequence (A8T644 other isoform, or with tags, fused parts or gaps limits assumed, chain 2 of 2): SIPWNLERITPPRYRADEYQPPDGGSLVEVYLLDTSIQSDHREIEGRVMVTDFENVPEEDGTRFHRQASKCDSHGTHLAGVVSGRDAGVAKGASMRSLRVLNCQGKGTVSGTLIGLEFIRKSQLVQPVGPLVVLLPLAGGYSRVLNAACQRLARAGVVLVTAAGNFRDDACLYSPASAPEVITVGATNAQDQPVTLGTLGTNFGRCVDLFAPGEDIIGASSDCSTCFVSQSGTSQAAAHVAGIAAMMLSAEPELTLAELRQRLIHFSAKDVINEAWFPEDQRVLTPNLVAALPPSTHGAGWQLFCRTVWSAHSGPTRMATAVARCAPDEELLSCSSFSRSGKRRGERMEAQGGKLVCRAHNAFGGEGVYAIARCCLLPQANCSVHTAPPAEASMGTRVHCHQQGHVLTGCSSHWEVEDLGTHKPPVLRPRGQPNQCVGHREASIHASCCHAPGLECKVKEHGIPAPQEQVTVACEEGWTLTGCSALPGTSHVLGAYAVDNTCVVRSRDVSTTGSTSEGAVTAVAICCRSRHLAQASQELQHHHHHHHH

IC50 [µM] | Binder
> 50 | Ac-WNLVRIGL-NH2 [Compound 120]
> 50 | Ac-DLMPWNLVRIGL-NH2 [Compound 47]
> 50 | Pentanoyl-WNLV[hArg]IGLTR-NH2 (SMILES CCCCC(=O)N[C@@H](Cc1c[nH]c2ccccc12)C(=O)N[C@@H](CC(N)=O)C(=O)N[C@@H](CC(C)C)C(=O)N[C@H](C(=O)N[C@@H](CCCCNC(=N)N)C(=O)N[C@H](C(=O)NCC(=O)N[C@@H](CC(C)C)C(=O)N[C@H](C(=O)N[C@@H](CCCNC(=N)N)C(N)=O)[C@@H](C)O)[C@@H](C)CC)C(C)C, also called n-BuC(O)-WNLV(homoR)IGLTR-NH2) [Compound 118]
> 50 | Ac-PWNLVRIGL-NH2 [Compound 119]
> 50 | Pentanoyl-WNLVRIGLTR-NH2 (SMILES CCCCC(=O)N[C@@H](Cc1c[nH]c2ccccc12)C(=O)N[C@@H](CC(N)=O)C(=O)N[C@@H](CC(C)C)C(=O)N[C@H](C(=O)N[C@@H](CCCNC(=N)N)C(=O)N[C@H](C(=O)NCC(=O)N[C@@H](CC(C)C)C(=O)N[C@H](C(=O)N[C@@H](CCCNC(=N)N)C(N)=O)[C@@H](C)O)[C@@H](C)CC)C(C)C) [Compound 112]
> 50 | Pentanoyl-WNLVRIGTTR-NH2 (SMILES CCCCC(=O)N[C@@H](Cc1c[nH]c2ccccc12)C(=O)N[C@@H](CC(N)=O)C(=O)N[C@@H](CC(C)C)C(=O)N[C@H](C(=O)N[C@@H](CCCNC(=N)N)C(=O)N[C@H](C(=O)NCC(=O)N[C@H](C(=O)N[C@H](C(=O)N[C@@H](CCCNC(=N)N)C(N)=O)[C@@H](C)O)[C@@H](C)O)[C@@H](C)CC)C(C)C) [Compound 113]
> 50 | Pentanoyl-WNLVRIGTLR-NH2 (SMILES CCCCC(=O)N[C@@H](Cc1c[nH]c2ccccc12)C(=O)N[C@@H](CC(N)=O)C(=O)N[C@@H](CC(C)C)C(=O)N[C@H](C(=O)N[C@@H](CCCNC(=N)N)C(=O)N[C@H](C(=O)NCC(=O)N[C@H](C(=O)N[C@@H](CC(C)C)C(=O)N[C@@H](CCCNC(=N)N)C(N)=O)[C@@H](C)O)[C@@H](C)CC)C(C)C) [Compound 114]
> 50 | Ac-DLMPWNLVRIGLLR-NH2 [Compound 35]
> 50 | Ac-DLMPWNAVRIGLLR-NH2 [Compound 61]
> 50 | Ac-DLMPWNLVRIGALR-NH2 [Compound 56]
> 50 | Ac-DLAPWNLVRIGLLR-NH2 [Compound 43]
> 50 | Ac-DLMPWNLVAIGLLR-NH2 [Compound 59]
> 50 | Ac-DLMPWNLARIGLLR-NH2 [Compound 60]
> 50 | Ac-DLMPWNLVRIGLLA-NH2 [Compound 54]
> 50 | Ac-DAMPWNLVRIGLLR-NH2 [Compound 44]
> 50 | Ac-DLMPANLVRIGLLR-NH2 [Compound 41]
> 50 | Ac-DLMAWNLVRIGLLR-NH2 [Compound 42]
> 50 | Ac-DLMPWNLVRAGLLR-NH2 [Compound 58]
> 50 | Ac-DLMPWALVRIGLLR-NH2 [Compound 62]
> 50 | Ac-DLMPWNLVRI-NH2 [Compound 49]
> 50 | Pentanoyl-WNLVRIGLLR-NH2 (SMILES CCCCC(=O)N[C@@H](Cc1c[nH]c2ccccc12)C(=O)N[C@@H](CC(N)=O)C(=O)N[C@@H](CC(C)C)C(=O)N[C@H](C(=O)N[C@@H](CCCNC(=N)N)C(=O)N[C@H](C(=O)NCC(=O)N[C@@H](CC(C)C)C(=O)N[C@@H](CC(C)C)C(=O)N[C@@H](CCCNC(=N)N)C(N)=O)[C@@H](C)CC)C(C)C) [Compound 111]
> 50 | Ac-DLMPWNLVRIGLL-NH2 [Compound 46]
> 50 | Ac-DLMPWNLVRIG-NH2 [Compound 48]

biological target: T1, human PCSK9 (proprotein convertase …); assay: SPR, SensiQ Pioneer FE, amine-coupled protein, OneStep gradient injection (Method 3)

Kd [µM] | Binder
1.3 | Ac-CRLPWNLQRIGLPC-NH2 (disulfide 1-14 (inferred)) [Compound 32]
11 | Ac-CRLPWNLARIGLPC-NH2 (disulfide 1-14; SMILES CC[C@H](C)[C@@H]1NC(=O)[C@H](CCCNC(=N)N)NC(=O)[C@H](C)NC(=O)[C@H](CC(C)C)NC(=O)[C@H](CC(N)=O)NC(=O)[C@H](Cc2c[nH]c3ccccc23)NC(=O)[C@@H]2CCCN2C(=O)[C@H](CC(C)C)NC(=O)[C@H](CCCNC(=N)N)NC(=O)[C@@H](NC(C)=O)CSSC[C@@H](C(N)=O)NC(=O)[C@@H]2CCCN2C(=O)[C@H](CC(C)C)NC(=O)CNC1=O) [Compound 73]
46.4 | Ac-FCLWNLKRIGAQCWF-NH2 (disulfide 2-13; SMILES CC[C@H](C)[C@@H]1NC(=O)[C@H](CCCNC(=N)N)NC(=O)[C@H](CCCCN)NC(=O)[C@H](CC(C)C)NC(=O)[C@H](CC(N)=O)NC(=O)[C@H](Cc2c[nH]c3ccccc23)NC(=O)[C@H](CC(C)C)NC(=O)[C@@H](NC(=O)[C@H](Cc2ccccc2)NC(C)=O)CSSC[C@@H](C(=O)N[C@@H](Cc2c[nH]c3ccccc23)C(=O)N[C@@H](Cc2ccccc2)C(N)=O)NC(=O)[C@H](CCC(N)=O)NC(=O)[C@H](C)NC(=O)CNC1=O) [Compound 96]
5.83 | Ac-CFIPWNLQRIGLLC-NH2 (disulfide 1-14 (inferred)) [Compound 31]
118 | Ac-CRL[Ach]WNLQRIGLPC-NH2 (disulfide 1-14) [Compound 82]
6.01 | 5FAM-SGSGCFIPWNLQRIGLLC-NH2 (disulfide 5-18 (inferred)) [Compound 33]
4.47 | 5FAM-SGSGCRLPWNLQRIGLPC-NH2 (disulfide 5-18 (inferred)) [Compound 34]
